Paper PMC3965549, “Evidence for LINC1-SUN Associations at the Plant Nuclear Periphery” (PLoS ONE, 2014)

B1: AtSUN2^1–106-CFP (domain or fragment, Arabidopsis, UniProt Q9SG79 1-106, looked up)
chain: MSASTVSITASPRTIRRTPVLSGEKKSNFDFPPSESHANAAIGESSAGTNKDLIRAEAAGERSNTYDVGPVTRKSGSTATGTNTTTTQRRTRKSQGNKIDRGKWKT
notes: N-terminus of AtSUN2 of Arabidopsis: the first 318 bp (106 aa) of the CDS; also called SUN2 N-terminus; AtSUN2 N-terminus; source: Nicotiana benthamiana leaves, transient expression by A. tumefaciens GV3101 infiltration (pK7CWG2), in living cells; not shown: CFP, C-terminal, kept
B2: AtSUN1-CFP (natural protein, Arabidopsis, UniProt Q9FF75 1-471, looked up)
chain: MSASTVSITANTAAATRRTPILAGEKKSNFDYPQSESLANGGVGEAGGTSRDLSRGEATLDRSQGQDLGPVTRRSVSAATGTNTTATQRRTRKVATPKSEKARWKTVVRIFAKQLGALLIIVGLIQLTRKMILKASSPSSPISSYETEMAFSGLESRIAEVDGLVKATTNSMQVQVELLDKKMEREAKVLRQEIERKASAFQSELKKIESRTESLEKSVDEVNAKPWVTKDELERIYEELKKGNVDDSAFSEISIDELRAYARDIMEKEIEKHAADGLGRVDYALASGGAFVMEHSDPYLVGKGSSWFATTMRRAHTNAVKMLSPSFGEPGQCFPLKGSEGYVQIRLRGPIIPEAFTLEHVAKSVAYDRSSAPKDCRVSGSLQGPESSAETENMQLLTEFTYDLDRSNAQTFNILESSSSGLIDTVRLDFTSNHGSDSHTCIYRFRVHGRAPDPVPVVGTNLDQDSSPESE
notes: AtSUN1, Sad1/UNC84 domain protein 1 of Arabidopsis; also called full length AtSUN1; source: Nicotiana benthamiana leaves, transient expression by A. tumefaciens GV3101 infiltration (pK7CWG2), in living cells; not shown: CFP, C-terminal, kept
B3: AtSUN2-CFP (natural protein, Arabidopsis, UniProt Q9SG79 1-455, looked up)
chain: MSASTVSITASPRTIRRTPVLSGEKKSNFDFPPSESHANAAIGESSAGTNKDLIRAEAAGERSNTYDVGPVTRKSGSTATGTNTTTTQRRTRKSQGNKIDRGKWKTVVRVFAKQFGALLLLVGLIQLIRKLTLKDSSLSSSNFPIETEMVLSELESRISAVDGLVKTTTKMMQVQVEFLDKKMDSESRALRQTIDSTSSVLHSELKKVESKTERLQVSVDELNAKPLVSREELERVYEELKKGKVGDSDVNIDKLRAYARDIVEKEIGKHVADGLGRVDYALASGGAFVMGHSDPFLVGNGRNWFGTSRRRVHSKAVKMLTPSFGEPGQCFPLKGSNGYVLVRLRAPIIPEAVTLEHVSKAVAYDRSSAPKDCRVSGWLGDIDMETETMPLLTEFSYDLDRSNAQTFDIADSAHSGLVNTVRLDFNSNHGSSSHTCIYRFRVHGRELDSVSVAHA
notes: AtSUN2, Sad1/UNC84 domain protein 2 of Arabidopsis; also called full length AtSUN2; source: Nicotiana benthamiana leaves, transient expression by A. tumefaciens GV3101 infiltration (pK7CWG2), in living cells; not shown: CFP, C-terminal, kept

molecular target: T1, AtLINC1-YFP (Arabidopsis, UniProt F4HRT5 1-1132); assay: FRET or BRET; acceptor photobleaching FRET (apFRET) in N. benthamiana leaf cells 3 days after infiltration; CFP donor on the SUN constructs, YFP acceptor on AtLINC1; YFP bleached in a constant ROI; pre-bleach fluorescence as internal negative control; about 35 NE per sample; conditions: partners not purified
T1 construct: Little Nuclei 1 (LINC1) of Arabidopsis; also called Little Nuclei 1
T1 sequence (looked up): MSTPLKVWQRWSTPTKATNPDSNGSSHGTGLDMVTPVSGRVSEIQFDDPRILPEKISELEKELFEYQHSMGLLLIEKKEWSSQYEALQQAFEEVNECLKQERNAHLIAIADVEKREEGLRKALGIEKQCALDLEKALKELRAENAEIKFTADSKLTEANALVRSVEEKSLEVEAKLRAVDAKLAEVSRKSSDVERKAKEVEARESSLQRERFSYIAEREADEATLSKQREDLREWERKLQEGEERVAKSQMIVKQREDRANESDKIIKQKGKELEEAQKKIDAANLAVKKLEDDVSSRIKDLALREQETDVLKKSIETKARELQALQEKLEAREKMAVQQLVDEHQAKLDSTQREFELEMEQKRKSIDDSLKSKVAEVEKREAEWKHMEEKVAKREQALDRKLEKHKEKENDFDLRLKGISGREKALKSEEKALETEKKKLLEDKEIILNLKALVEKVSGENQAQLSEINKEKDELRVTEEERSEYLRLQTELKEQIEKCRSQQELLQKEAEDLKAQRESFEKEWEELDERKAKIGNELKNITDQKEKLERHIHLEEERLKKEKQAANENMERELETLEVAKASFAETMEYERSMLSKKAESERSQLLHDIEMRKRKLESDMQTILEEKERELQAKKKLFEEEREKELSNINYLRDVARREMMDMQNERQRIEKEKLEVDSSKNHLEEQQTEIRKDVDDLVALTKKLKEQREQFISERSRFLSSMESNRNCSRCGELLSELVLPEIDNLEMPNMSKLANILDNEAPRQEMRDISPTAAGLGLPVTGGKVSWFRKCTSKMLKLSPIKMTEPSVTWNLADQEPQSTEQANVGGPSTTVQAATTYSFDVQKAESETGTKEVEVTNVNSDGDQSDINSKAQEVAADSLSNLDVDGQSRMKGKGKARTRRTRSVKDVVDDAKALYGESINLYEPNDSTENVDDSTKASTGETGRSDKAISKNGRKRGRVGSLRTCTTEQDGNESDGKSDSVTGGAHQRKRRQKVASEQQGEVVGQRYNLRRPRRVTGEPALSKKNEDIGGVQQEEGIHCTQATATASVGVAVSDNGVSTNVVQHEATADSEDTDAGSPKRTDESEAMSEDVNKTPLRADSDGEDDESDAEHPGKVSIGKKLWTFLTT

For B1, which “FRET efficiency (EF)” value is on record?
The value was 1.29%.

Which “FRET efficiency (EF)” value does the source give for B2 here?
The value was 1.85%.

How did the “FRET efficiency (EF)” value turn out when B3 was run?
Its value is 1.9%.
